“And” between values parts separate entries of the source, which are not always exact repeats. Identical values can stand only once. Like-named read-outs stand apart in the source and are kept apart here.
T1: MICB*005 on HCC1534 cells (human, UniProt Q29980 23-383)
T1 sequence (looked up): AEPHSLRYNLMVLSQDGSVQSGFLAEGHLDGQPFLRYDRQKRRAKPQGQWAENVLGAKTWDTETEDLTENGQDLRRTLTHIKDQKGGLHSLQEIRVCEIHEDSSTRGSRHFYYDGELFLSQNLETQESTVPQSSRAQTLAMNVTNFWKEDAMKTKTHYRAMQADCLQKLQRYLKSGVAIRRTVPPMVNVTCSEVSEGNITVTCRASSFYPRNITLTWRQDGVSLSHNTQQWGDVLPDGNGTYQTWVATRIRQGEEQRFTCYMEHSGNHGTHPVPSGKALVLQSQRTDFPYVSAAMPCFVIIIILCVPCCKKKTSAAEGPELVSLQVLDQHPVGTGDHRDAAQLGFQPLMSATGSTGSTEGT

T2: MICA.008.a3.R202-S297.R202N mIgG2a.Glyco11 (human; mouse, UniProt Q29983 203-297, engineered N-linked glycosylation site R202N)
T2 construct: not shown: murine IgG2a Fc
T2 chain: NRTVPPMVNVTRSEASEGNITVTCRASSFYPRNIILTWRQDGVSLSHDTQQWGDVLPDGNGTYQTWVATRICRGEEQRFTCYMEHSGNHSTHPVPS

T3: MICA.008.a3.T204-S297.E215N.mIgG2a.Glyco12 (human; mouse, UniProt Q29983 204-297, engineered N-linked glycosylation site E215N)
T3 construct: not shown: murine IgG2a Fc
T3 chain: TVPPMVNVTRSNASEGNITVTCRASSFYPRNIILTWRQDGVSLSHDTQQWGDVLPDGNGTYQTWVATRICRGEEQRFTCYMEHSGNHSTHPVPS

T4: MICA002.His (human MICA*002 alpha 3 domain, His tagged) (human)
T4 construct: also called huMICA*002 alpha 3-his
T4 chain: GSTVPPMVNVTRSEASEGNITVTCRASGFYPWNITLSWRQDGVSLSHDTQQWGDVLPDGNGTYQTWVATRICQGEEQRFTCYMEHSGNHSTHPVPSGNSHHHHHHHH

T5: MICA004.His (human MICA*004 alpha 3 domain, His tagged) (human)
T5 construct: also called huMICA*004 alpha 3-his
T5 chain: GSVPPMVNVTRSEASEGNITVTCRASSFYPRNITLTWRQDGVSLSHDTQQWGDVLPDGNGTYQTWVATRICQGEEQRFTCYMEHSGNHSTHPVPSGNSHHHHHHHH

T6: MICB005.His (human MICB*005 alpha 3 domain, His tagged) (human)
T6 construct: also called huMICB*005 alpha 3-his
T6 chain: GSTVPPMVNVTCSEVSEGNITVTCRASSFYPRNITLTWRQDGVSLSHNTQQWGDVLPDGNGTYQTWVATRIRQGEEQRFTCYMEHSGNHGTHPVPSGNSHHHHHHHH

T7: MICA008.His (human MICA*008 alpha 3 domain, His tagged) (human)
T7 construct: Also used for FPOP (expressed in CHO); also called huMICA*008 alpha 3-his; MICA*008 a3
T7 chain: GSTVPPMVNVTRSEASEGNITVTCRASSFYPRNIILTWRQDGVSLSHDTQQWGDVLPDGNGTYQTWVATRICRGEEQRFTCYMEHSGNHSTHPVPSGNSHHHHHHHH

T8: MICA.008.a3.T204-S297.H248N.mIgG2a.Glyco15 (human; mouse, UniProt Q29983 204-297, engineered N-linked glycosylation site H248N)
T8 construct: not shown: murine IgG2a Fc
T8 chain: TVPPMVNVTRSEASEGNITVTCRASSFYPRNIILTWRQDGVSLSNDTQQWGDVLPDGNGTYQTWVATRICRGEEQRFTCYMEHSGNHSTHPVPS

T9: MICA.008.a3.T204-S297.I236T.mIgG2a.Glyco13 (human; mouse, UniProt Q29983 204-297, engineered N-linked glycosylation site created by I236T)
T9 construct: not shown: murine IgG2a Fc
T9 chain: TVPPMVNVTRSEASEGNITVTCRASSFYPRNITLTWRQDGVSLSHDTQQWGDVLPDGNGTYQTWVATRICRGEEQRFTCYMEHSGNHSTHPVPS

T10: MICA.008.a3.T204-S297.C-terminal insert of N298.G299.S300.mIgG2a.Glyco17 (human; mouse, UniProt Q29983 204-297, engineered N-linked glycosylation site at inserted N298)
T10 construct: not shown: murine IgG2a Fc
T10 chain: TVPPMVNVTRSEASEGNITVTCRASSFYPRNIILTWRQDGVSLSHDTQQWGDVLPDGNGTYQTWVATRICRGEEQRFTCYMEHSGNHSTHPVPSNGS

T11: MICA.008.a3.T204-S297.R279N.mIgG2a.Glyco16 (human; mouse, UniProt Q29983 204-297, engineered N-linked glycosylation site R279N)
T11 construct: not shown: murine IgG2a Fc
T11 chain: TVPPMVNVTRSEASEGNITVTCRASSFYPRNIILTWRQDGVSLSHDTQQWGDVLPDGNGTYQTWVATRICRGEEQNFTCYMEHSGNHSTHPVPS

T12: MICA.008.a3.T204-S297.G243N.mIgG2a.Glyco14 (human; mouse, UniProt Q29983 204-297, engineered N-linked glycosylation site G243N)
T12 construct: not shown: murine IgG2a Fc
T12 chain: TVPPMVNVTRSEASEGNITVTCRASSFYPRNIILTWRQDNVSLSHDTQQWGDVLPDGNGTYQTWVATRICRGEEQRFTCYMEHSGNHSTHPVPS

T13: MICA*008 on MEL-JUSO cells (human, UniProt Q29983 24-317)
T13 chain: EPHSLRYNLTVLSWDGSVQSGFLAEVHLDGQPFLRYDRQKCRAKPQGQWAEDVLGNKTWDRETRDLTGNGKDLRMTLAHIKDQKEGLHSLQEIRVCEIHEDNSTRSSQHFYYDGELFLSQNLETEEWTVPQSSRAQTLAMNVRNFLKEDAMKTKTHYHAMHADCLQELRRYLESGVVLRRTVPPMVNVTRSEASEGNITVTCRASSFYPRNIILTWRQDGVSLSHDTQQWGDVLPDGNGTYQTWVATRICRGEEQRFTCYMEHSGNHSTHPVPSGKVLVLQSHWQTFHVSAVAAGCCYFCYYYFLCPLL

B1: 6E1.1.12 (antibody, V domains shown)
VH: QGQMQQSGAELVKPGASVKLSCKTSGFTFSDNYISWLKQKPGQSLEWIAWIYAGTGGSSYNQKFRDKAQLTVDTSSRTAYMQLSSLTTEDSAIYYCARHDYYGTSGAWFAYWGRGTLVTVSA
VL: DVLMTQTPLSLPVSLGDQASISCRSSQHIVHSNENTYLEWYLQKPGQSPKLLIYKVSNRFSGVPDRFSGSGSGTDFTLKISRVEAEDLGVYYCFQGSHVPWTFGGGTKVEIK
notes: Mouse hybridoma antibody; constant regions differ by assay
B2: 2E5.2.3 (antibody, V domains shown)
VH: QGQMQQSGAELVKPGASVKLSCKTSGFTFSDNYISWLKQKPGQSLEWIAWIYAGTGGTSYNQKFTAKAQLTVDTSSSTAYMQFSSLTTEDSAIYYCARHDYYGTSGAWFAYWGQGTLVTVSA
VL: DVLMTQTPLSLPVSLGDQASLSCRSSQNIVHINGNTYLEWYLQKPGQSPKLLIYKVSNRFSGVPDRFSGSGSGTDFTLKISRVEAEDLGVYYCFQGSHVPWTFGGGTKVEIK
notes: as for B1
B3: 7A3.1.9 (antibody, V domains shown)
VH: QVQLKESGPGLVAPSQSLSITCTVSGFALTGSGVNWVRQPPGKGLEWLGMIWGDGNTDYNSALKSRLSISKDNSKSQIFLKMNSLQTDDTARYYCARGAHYGKRWYFDVWGAGTTVTVSS
VL: DIQMTQTTSSLSASLGDRVTISCSASQGINNYLNWYQQKPDGTVKLLIYYTSSLPSGVPSRFSGSGSGTDYSLTISNLEPEDIATYYCQQYSKLPPTFGGGTKVEIK
notes: as for B1
B4: 1E6.1.3 (antibody, V domains shown)
VH: QVQLKESGPGLVAPSQSLSITCTVSGFSLTGSGVNWVRQPPGQGLEWLGMIWGDGNTDYNSALKSRLSISKDNSKSQVFLKMNSLQTDDTARYYCARGAHYGKRWYFDVWGAGTTVTVSS
VL: DIQMTQTTFSLSASLGDRVTISCSASQGINNYLNWYQQRPDGTVKLLIYYTSTLPSGVPSRFSGSGSGTDYSLTISNLEPEDIASYYCQQYSKLPPTFGGGTKVEIK
notes: as for B1

Legend:
[1] = biological target: T14, MILL1-MICA chimera.murine IgG2a Fc fusion (mouse MILL1 with grafted human MICA*008 …); assay: ELISA, coated chimera
T14 construct: MICA*008 residues around NGTYQT on the 'back' and in the beta2 microglobulin interface grafted onto murine MILL1; also called MILL1-MICA*008 chimera

[2] = biological target: T1, MICB*005 on HCC1534 cells; assay: cell-based or functional assay
[3] = biological target: T15, MICA.008.a3.T204-S297.E215N.G243N.H248N.R279N.C-terminal insert of N298.G299.S300.mIgG2a.Glyco4 … (human; mouse, engineered N-linked glycosylation sites E215N, G243N, H248N, R279N and inserted N298); assay: ELISA, coated variant;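 also: ELISA with plates coated at 2 ug/ml with MICA*008 alpha 3 glycosylation variants as murine IgG2a Fc fusions, antibody binding detected by HRP anti-human IgG Fc and TMB absorbance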
T15 construct: not shown: murine IgG2a Fc

[4] = biological target: T2, MICA.008.a3.R202-S297.R202N …; assay: ELISA, coated variant;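 also: ELISA with plates coated at 2 ug/ml with MICA*008 alpha 3 glycosylation variants as murine IgG2a Fc fusions, antibody binding detected by HRP anti-human IgG Fc and TMB absorbance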
Protocol: (§1) Hybridoma derived clones binding to all four MICA/B alleles alpha 3 domains were tested by ELISA for binding to the MICA*008 alpha 3 glycosylation variants fused to murine IgG2a Fc fusion. Nunc maxisorp plates were coated with 2 ug/ml of glycosylation variants as previously described. Cloned and recombinantly expressed hybridoma monoclonal antibodies were added to the plates after blocking with a 1X PBS buffer containing 0.5% BSA and 0.05% Tween 20. After incubation, plates were washed multiple times with wash buffer (1X PBS containing 0.05% Tween 20) and secondary antibody (goat anti-human IgG Fc conjugated to HRP) was added. Plates were then washed multiple times with wash buffer again before adding either BioFX TMB Microwell 1 Component Peroxidase or tetramethylbenzidine (TMB) substrate (KPL; Gaithersburg, Md.). After several minutes of incubation, the reaction was stopped with BioFX stop solution or 1 N solution of HCl, respectively. Plates were read on a Spectra MAX 340 plate reader at either 630 or 450 nm respectively (Molecular Devices; Sunnyvale, Calif.).

[5] = biological target: T3, MICA.008.a3.T204-S297.E215N.mIgG2a.Glyco …; assay: ELISA, coated variant;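 also: ELISA with plates coated at 2 ug/ml with MICA*008 alpha 3 glycosylation variants as murine IgG2a Fc fusions, antibody binding detected by HRP anti-human IgG Fc and TMB absorbance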
Protocol: as §1

[6] = biological target: T4, MICA002.His (human MICA*002 alpha 3 …); assay: SPR, antibody captured;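 also: SPR with antibody held by surface-bound anti-Fc while His-tagged alpha three domains flow over, Kd derived by fitting a one-to-one binding model to sensograms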
[7] = biological target: T5, MICA004.His (human MICA*004 alpha 3 …); assay: SPR, antibody captured;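 also: SPR with antibody held by surface-bound anti-Fc while His-tagged alpha three domains flow over, Kd derived by fitting a one-to-one binding model to sensograms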
[8] = biological target: T6, MICB005.His (human MICB*005 alpha 3 …); assay: SPR, antibody captured;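 also: SPR with antibody held by surface-bound anti-Fc while His-tagged alpha three domains flow over, Kd derived by fitting a one-to-one binding model to sensograms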
[9] = biological target: T7, MICA008.His (human MICA*008 alpha 3 …); assay: SPR, antibody captured;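 also: SPR with antibody held by surface-bound anti-Fc while His-tagged alpha three domains flow over, Kd derived by fitting a one-to-one binding model to sensograms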
[10] = biological target: T16, MICA*004 on HCC1534 cells (human, UniProt Q29983 24-383); assay: cell-based or functional assay
[11] = biological target: T1, MICB*005 on HCC1534 cells; assay: cell-based or functional assay; remark: listed apart in the source
[12] = biological target: T16, MICA*004 on HCC1534 cells; assay: cell-based or functional assay; remark: listed apart in the source
[13] = biological target: T8, MICA.008.a3.T204-S297.H248N.mIgG2a.Glyco …; assay: ELISA, coated variant;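 also: ELISA with plates coated at 2 ug/ml with MICA*008 alpha 3 glycosylation variants as murine IgG2a Fc fusions, antibody binding detected by HRP anti-human IgG Fc and TMB absorbance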
Protocol: as §1

[14] = biological target: T9, MICA.008.a3.T204-S297.I236T.mIgG2a.Glyco …; assay: ELISA, coated variant
Protocol: as §1

[15] = biological target: T10, MICA.008.a3.T204-S297.C-terminal insert …; assay: ELISA, coated variant
Protocol: as §1

[16] = biological target: T11, MICA.008.a3.T204-S297.R279N.mIgG2a.Glyco …; assay: ELISA, coated variant
Protocol: as §1

[17] = biological target: T12, MICA.008.a3.T204-S297.G243N.mIgG2a.Glyco …; assay: ELISA, coated variant
Protocol: as §1

[18] = biological target: T13, MICA*008 on MEL-JUSO cells; assay: cell-based or functional assay
[19] = biological target: T7, MICA008.His (human MICA*008 alpha 3 …); assay: ELISA, coated antigen

Binder	binding result [1]	binding result [3]	binding result [4]	binding result [5]	Kd [6]	Kd [7]	Kd [8]	Kd [9]	EC50 of shedding inhibition [11]	EC50 of shedding inhibition [12]	binding result [14]	binding result [15]	binding result [17]	binding result [19]	% max inhibition of shedding [18]	% max inhibition of shedding [12]	further results
B1	binds	binds	binds	binds	2.8 nM	8.7 nM	10 nM	6.8 nM	0.0791 µg/mL	0.265 µg/mL and 0.157 µg/mL							EC50 of shedding inhibition [2]: 0.0724 µg/mL; Max % Inhibition of shedding [2]: 58%; maximum inhibition of shedding [10]: ~50%
B2	binds	binds	binds	binds	0.66 nM	1.96 nM	2.7 nM	1.8 nM	0.107 µg/mL	0.107 µg/mL and 0.23 µg/mL	binds	binds	binds				binding result [13]: binds; binding result [16]: binds; % max inhibition of shedding [11]: 60%; EC50 of shedding inhibition [18]: 0.195 µg/mL and 0.112 µg/mL
B3			binds	binds	22 nM	8.7 nM	16 nM			0.411 µg/mL	binds	binds	binds	binds	< 10%	50%	
B4			binds	binds	24 nM	37 nM	18 nM			0.681 µg/mL	binds	binds	binds	binds	20%	46%	

Reference: patent US20200055939A1 (Genentech, published 2020)
